Experimental data taken from publication PMC4098866.

Molecular target: laminin from mouse EHS (Engelbreth-Holm-Swarm) sarcoma (mouse)
Experiment: ELISA

Substance	Kd [nM]
RPSA-(225–295) (from UniProt P14206 225-295) (domain or fragment)	344
RPSA-(2–220) (from UniProt P14206 2-220) (domain or fragment)	691
RPSA-(2–295) (from UniProt P14206 2-295) (natural protein)	666
RPSA-(210–295) (from UniProt P14206 210-295) (domain or fragment)	374
RPSA-(2–209) (from UniProt P14206 2-209) (domain or fragment)	273
